Measured values reported in publication PMC7035337 (2020).

Biological target: T1, DSP_linker (Homo sapiens (Human), UniProt P15924)
T1 chain: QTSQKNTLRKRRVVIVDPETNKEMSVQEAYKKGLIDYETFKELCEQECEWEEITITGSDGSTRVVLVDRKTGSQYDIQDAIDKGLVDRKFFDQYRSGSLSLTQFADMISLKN
Experiment: MST

B1: VIM_rod (protein)
chain 1: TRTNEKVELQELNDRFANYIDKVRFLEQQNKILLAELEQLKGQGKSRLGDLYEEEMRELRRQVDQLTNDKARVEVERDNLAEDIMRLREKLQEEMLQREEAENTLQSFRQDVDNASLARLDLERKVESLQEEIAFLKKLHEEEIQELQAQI
chain 2: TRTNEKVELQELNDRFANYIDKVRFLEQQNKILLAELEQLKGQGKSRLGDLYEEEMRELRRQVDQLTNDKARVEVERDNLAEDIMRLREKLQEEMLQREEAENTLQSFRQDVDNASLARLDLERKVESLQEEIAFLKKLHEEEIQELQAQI
Kd: > 800 µM
